Our source for the protein stability index values is the supplement of paper PMC9732359.

± gives the uncertainty stated by the source.

This data set in a line: protein stability index of a GFP-peptide fusion (yeast GPS) (PSI 1-4); higher = more stable; sorted into four equal gates, so the index is relative within each strain. In a few lines:
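The protein stability index of a peptide was calculated by multiplying its read frequency in each gate by that gate's number and adding the products. The peptides were tiled 17-residue stretches of yeast proteins, fused downstream of GFP on a Cherry-expressing plasmid and carried in yeast as a pooled library. Mid-log cultures in leucine-free medium were sorted into four equal gates by GFP/Cherry ratio, and each gate's plasmids were PCR-amplified and Illumina-sequenced.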

In the case of AQKCGWTIPHKKWNDLK [SIR2], the protein stability index (doa10∆) amounted to 3.25 ± 0.057, the protein stability index (pdr5∆) came to 3.26 ± 0.086, the protein stability index (san1∆) stood at 3.26 ± 0.058 and the protein stability index (ubr1∆) is 2.94 ± 0.038.
Turning to AQLTLKRCKHFELGGEK [RPL42A], the protein stability index (doa10∆) was determined as 1.93 ± 0.12, the protein stability index (pdr5∆) is 2.46 ± 0.11, the protein stability index (san1∆) was 2.89 ± 0.069 and the protein stability index (ubr1∆) was 2.56 ± 0.076.
Take AQQLVGVYKRDNRTKST [SMC4]: the protein stability index (doa10∆) turned out to be 3.11 ± 0.2 and the protein stability index (pdr5∆) was 3.04 ± 0.2.
AQYFYSGAYSYPDFRHY [DIS3]: the protein stability index by setting is: (doa10∆) 1.43 ± 0.056; (pdr5∆) 1.43 ± 0.09; (san1∆) 1.87 ± 0.16; (ubr1∆) 1.56 ± 0.081.
For ARDEILPLRLQFNEFIQ [PGD1], the protein stability index reads like this: (doa10∆) 2.55 ± 0.083; (pdr5∆) 3.01 ± 0.065; (san1∆) 2.74 ± 0.078; (ubr1∆) 2.79 ± 0.058.
With ARGLTATGKKSRGINKG [RPL15A], the protein stability index was determined as 3.57 ± 0.19 (doa10∆), 3.37 ± 0.15 (pdr5∆), 3.3 ± 0.071 (san1∆) and 3.16 ± 0.068 (ubr1∆).
ARGMTSKPAGFMKKLRA [RPS15]: the protein stability index amounted to 3.15 ± 0.16 (doa10∆), 2.64 ± 0.26 (san1∆) and 3.6 ± 0.14 (ubr1∆).
Take ARIIRSELLARDIFQED [RGR1]: the protein stability index worked out at 2.26 ± 0.11 (doa10∆), 2.4 ± 0.087 (pdr5∆), 2.14 ± 0.12 (san1∆) and 2.19 ± 0.096 (ubr1∆).
On to ARLAILKERAKNISSQL [YGR119C/NUP57], for which the protein stability index turned out to be 2.24 ± 0.079 (doa10∆), 2.77 ± 0.069 (pdr5∆), 2.51 ± 0.072 (san1∆) and 2.51 ± 0.052 (ubr1∆).
ARQFGYVILTTSAGIMD [RPS22A]: the protein stability index is 1.37 ± 0.048 (doa10∆), 1.33 ± 0.045 (pdr5∆), 1.17 ± 0.094 (san1∆) and 1.25 ± 0.037 (ubr1∆).
In the same order, the values of ARVKAFDRHCNMVLENV [SMD2] are 1.53 ± 0.091, 2.3 ± 0.087, 1.39 ± 0.21 and 1.87 ± 0.085.
Turning to ARVLFDDMVEYEDGTPA [CYT1], the protein stability index worked out at 3.47 ± 0.17 (doa10∆), 3.09 ± 0.096 (pdr5∆), 3.24 ± 0.085 (san1∆) and 3.48 ± 0.11 (ubr1∆).
With ASFGKNLQIRQLFNWCL [DSN1], the protein stability index by setting is: (doa10∆) 1.2 ± 0.064; (pdr5∆) 1.44 ± 0.051; (san1∆) 1.29 ± 0.15; (ubr1∆) 2.33 ± 0.12.
The matching figures for ASFNDTFVHVTDLSGKE [RPS14A]: 2.17 ± 0.097, 1.36 ± 0.093, 1.76 ± 0.22 and 1.15 ± 0.082.
Regarding ASILLALTQMDQDKVNF [RPB3], the protein stability index reads like this: (doa10∆) 3.18 ± 0.11; (pdr5∆) 3.28 ± 0.094; (san1∆) 3.24 ± 0.073; (ubr1∆) 2.93 ± 0.056.
In the case of ASISLPNHIPSVNPSNK [SWP82], the protein stability index runs as follows: (doa10∆) 2.99 ± 0.1; (pdr5∆) 3.05 ± 0.069; (san1∆) 3.01 ± 0.075; (ubr1∆) 3.12 ± 0.054.
As to ASKGIDRLSLQDRQQLL [ECM29], the protein stability index turned out to be 3.08 ± 0.083 (doa10∆), 3.11 ± 0.07 (pdr5∆), 3.19 ± 0.085 (san1∆) and 3.21 ± 0.056 (ubr1∆).
Consider ASKKSGGDVVKFQKLLQ [SMC4], for which the protein stability index turned out to be 3.42 ± 0.15 (doa10∆), 3.64 ± 0.12 (pdr5∆), 3.19 ± 0.13 (san1∆) and 3.4 ± 0.17 (ubr1∆).
In the same order, the values of ASKTNLRLTDVTNSLSN [GAL11] are 3.15 ± 0.072, 3.38 ± 0.067, 2.96 ± 0.051 and 3.28 ± 0.064.
For the sequence ASLDGTIRLWECGTGTT [RPN14], the protein stability index (doa10∆) was found to be 2.8 ± 0.093, the protein stability index (pdr5∆) amounted to 2.91 ± 0.13, the protein stability index (san1∆) was 3.19 ± 0.069 and the protein stability index (ubr1∆) turned out to be 2.78 ± 0.12.
The matching figures for ASLGIGLAAMGSANIEV [RPN2]: 1.65 ± 0.088, 1.76 ± 0.079, 1.74 ± 0.091 and 1.53 ± 0.067.
ASSAAAGAAGAAAGGDA [RPP2B]: the protein stability index (doa10∆) worked out at 2.87 ± 0.11, the protein stability index (pdr5∆) amounted to 3.02 ± 0.084, the protein stability index (san1∆) was 3.21 ± 0.071 and the protein stability index (ubr1∆) was determined as 2.87 ± 0.095.
Turning to ASSGPRYIVGVRNSVDR [RPT4], the protein stability index is 1.29 ± 0.12 (doa10∆), 1.42 ± 0.19 (pdr5∆) and 1.37 ± 0.092 (ubr1∆).
For ASTPSIRPDGRLPHQFR [RRP42], the protein stability index reads like this: (doa10∆) 2.9 ± 0.14; (pdr5∆) 3.21 ± 0.12; (san1∆) 2.81 ± 0.19; (ubr1∆) 2.99 ± 0.089.
Take ASTVAKTAPIQESFVPN [YOR098C/NUP1]: the protein stability index was 2.97 ± 0.16 (doa10∆), 2.83 ± 0.11 (pdr5∆), 2.94 ± 0.3 (san1∆) and 3.21 ± 0.061 (ubr1∆).
Take ASVTKEILGTAQSVGCR [RPL12A]: the protein stability index (doa10∆) was 1.35 ± 0.087, the protein stability index (pdr5∆) was 1.51 ± 0.044, the protein stability index (san1∆) came to 1.35 ± 0.082 and the protein stability index (ubr1∆) was found to be 1.61 ± 0.082.
